{"source": "paper PMC9990171", "about": "(2023)", "key": {"[1]": {"target": "SARS-CoV-2 S receptor binding domain (RBD) (SARS-CoV-2 (Wuhan-Hu-1), UniProt P0DTC2 329-538)", "experiment": "ELISA"}, "[2]": {"target": "SARS-CoV-2 S N-terminal domain (NTD) (SARS-CoV-2 (Wuhan-Hu-1), UniProt P0DTC2 14-294)", "experiment": "ELISA"}}, "data": [{"binder": "7D1 bivalent human heavy-chain-only antibody (HCAb) (antibody, V domains shown) VH: EVQLVETGGGLIQPGGSLRLSCAASGFQVSSSYMSWVRQAPGKGLEWVSVIYSGGGTYYADSVKGRFTISRDISKNTLYLQMNNLRAEDTAMYYCARGWTGVTATTGPWGQGTLVTVSS", "values": [{"measurement": "EC50", "setting": "[1]", "result": 4.11, "unit": "ng/mL"}]}, {"binder": "11C12 bivalent human heavy-chain-only antibody (HCAb) (antibody, V domains shown) VH: EVQLVESGGGLVQPGGSLRLSCAASGFTFSSSWMYWVRHIPGKGLEWVSRTTSDVASTFYADSVKGRFTVSRDNAKNMLYLQMNSLRAEDTAVYYCTRDFHDLWSGYYNHWGQGTLVTVSS", "values": [{"measurement": "EC50", "setting": "[2]", "result": 181, "unit": "ng/mL"}]}, {"binder": "10H7 bivalent human heavy-chain-only antibody (HCAb) (antibody, V domains shown) VH: EVQLVESGGGLIQPGGSLRLSCAASGFTVSNNYMAWVRQAPGKGLEWISVIYANGNTYYADSVKGRFTISRDNSKNVLFLQMSGLRAEDTAVYYCSSRYGSGSEELYDIWGQGTMVTVSS", "values": [{"measurement": "EC50", "setting": "[1]", "result": 3.09, "unit": "ng/mL"}]}, {"binder": "14D2 bivalent human heavy-chain-only antibody (HCAb) (antibody, V domains shown) VH: EVQLVETGGGLIQPGGSLRLSCAASGFQVSNVYMSWVRQAPGKGQEWVSVLYSGGNTYYADSVKGRFTISRDNSKNMVYLQMNSLRVEDTAVYYCARGWEGVTGTTGPWGQGTLVTVSS", "values": [{"measurement": "EC50", "setting": "[1]", "result": 3.48, "unit": "ng/mL"}]}, {"binder": "10D12 bivalent human heavy-chain-only antibody (HCAb) (antibody, V domains shown) VH: EVQLVETGGGLIQPGGSLRLSCAVSGFTVSLNYMSWVRQAPGKGLEWVSSIYSGGSTFYADSVKGRFTISRDNSKNTLYLQMNSLRAEDTAVYYCARGLGFGELPPFDFWGQGTLVTVSS", "values": [{"measurement": "EC50", "setting": "[1]", "result": 3.22, "unit": "ng/mL"}]}]}
